The results in this text go back to patent US20050106100A1, “Compounds containing matrix metalloproteinase substrates and methods of their use” (priority 2003, published 2005).

The term kcat/Km denotes the second-order rate constant that governs catalysis at low substrate concentration.

Type in all cases: biochemical
Substrate in series [1]: CC(=O)N1CCC[C@H]1C(=O)N[C@@H](CC(C)C)C(=O)NCC(=O)N[C@@H](CCc1ccccc1)C(=O)N[C@@H](Cc1ccc(O)cc1)C(=O)N[C@@H](CC(C)C)C(=O)NNC(=O)c1ccc(N/N=C/c2ccccc2S(=O)(=O)ON)nc1
In words: Substrate hydrolysis assay with mouse MMP9. As to conditions: other: mouse MMP9; pH 7.5. The method, then: (§1) The kinetic parameters of substrate hydrolysis were determined using a radio HPLC assay. The turnover of different substrates by active MMP-2 and active MMP-9 was determined using this assay. A stock solution of different test substrates (10 mM) was prepared in 100% DMSO. Stock solutions of the test substrates were diluted 1000 fold (10 nM) in buffer (50 mM Hepes/pH 7.5, 10 mM CaCl2, 0.1% Brij) to give working stock solution. Working stock solution of the test substrate (15 μl) was added to buffer (120 μL) in a test tube and warmed at 37° C. for 2 minutes. To this solution 15 μL of working stock of active MMP-2 (final concentration 10 nM) or active MMP-9 was added (final concentration 2 nM). Finally, 4 μCi of radiolabeled test substrate was added and the solution was mixed and immediately 67.5 µL of the mix was transferred to HPLC vials containing 7.5 μl of 0.5M EDTA for t=0 minute measurement. The rest of the mix in the test tube was incubated at 37° C. for 60 minutes. At the 60 minute time point 67.5 μl of the mix was transferred to the HPLC vial containing 7.5 μL of 0.5 M EDTA for t=60 minute measurement. […] Mobile phase A (MPA) was 25 mM ammonium acetate and mobile phase B (MPB) was 100% acetonitrile. […] The radiolabel was detected by a IN/US beta ram detector. […]

Substrate in series [2]: CC(=O)N1CCC[C@H]1C(=O)N[C@@H](CCCN)C(=O)NCC(=O)N[C@@H](CCc1ccccc1)C(=O)N[C@@H](CC(C)C)C(=O)NNC(=O)c1ccc(N/N=C/c2ccccc2S(=O)(=O)O)nc1
In words: Substrate hydrolysis assay with mouse MMP9. As to conditions: other: mouse MMP9; pH 7.5. The method, then: as §1

Substrate in series [3]: CC(=O)N1CCC[C@H]1C(=O)N[C@@H](CC(C)C)C(=O)NCC(=O)N[C@@H](CCc1ccccc1)C(=O)N[C@@H](Cc1ccc(O)cc1)C(=O)N[C@@H](CC(C)C)C(=O)NNC(=O)c1ccc(N/N=C/c2ccccc2S(=O)(=O)ON)nc1
Nature of the series: Kinetic measurements of substrate hydrolysis by active MMP-2 (radio HPLC assay). As to conditions: other: active MMP-2 final concentration 10 nM, 37° C., 60 minutes, radiolabeled test substrate, pH 7.5.
Description: (§2) Purified MMP-2 (10 μg) or MMP-9 (10 μg) were reconstituted in 100 μL of TCN buffer. […] Pro-MMP-2 was activated by incubation with 2 nM APMA for 2 hours at 37° C. At the end of incubation 100 μl of 100% glycerol was added to active MMP-2 and active MMP-9 (final concentration 50% glycerol). Active MMP-2 and active MMP-9 were aliquoted and stored at −20° C.
(§3) The level of active protease was always quantified by active site titration studies prior to kinetic studies. The active site of MMP-9 and MMP-2 was titrated using the GM6001 dissolved in 100% DMSO at a stock concentration of 2.5 mM. Dilutions (1:2) of GM6001 were prepared in TCN buffer to give a final concentration of 5 nM to 0.04 nM GM6001 in the active site titration assay. Activated MMP-2 or activated MMP-9 (2 nM) was preincubated with increasing concentrations of GM60001 at 37° C. for 15 minutes in 96 well black microtiter plates. […] Plates were read on fluorescence spectrophotometer at excitation wavelength of 320 nm and emission wavelength of 395 nm. The concentration of the active enzyme was determined using the Morrison equation and Kaleidagraph software (Reading, Pa.).
(§4) The kinetic parameters of substrate hydrolysis were determined using a radio HPLC assay. The turnover of different substrates by active MMP-2 and active MMP-9 was determined using this assay. […] The radiolabel was detected by a IN/US beta ram detector. […]

Substrate in series [4]: CC(=O)N1CCC[C@H]1C(=O)N[C@@H](CCCN)C(=O)NCC(=O)N[C@@H](CCc1ccccc1)C(=O)N[C@@H](CC(C)C)C(=O)NNC(=O)c1ccc(N/N=C/c2ccccc2S(=O)(=O)O)nc1
Description: as §2, §3, §4
The series is described as above. As to conditions: other: active MMP-2 final concentration 10 nM, 37° C., 60 minutes, radiolabeled test substrate, pH 7.5.

B1: mouse MMP9 (Mus musculus) (protein)
chain: FQTFKGLKWDHHNITYWIQNYSEDLPRDMIDDAFARAFAVWGEVAPLTFTRVYGPEADIVIQFGVAEHGDGYPFDGKDGLLAHAFPPGAGVQGDAHFDDDELWSLGKGVVIPTYYGNSNGAPCHFPFTFEGRSYSACTTDGRNDGTPWCSTTADYDKDGKFGFCPSERLYTEHGNGEGKPCVFPFIFEGRSYSACTTKGRSDGYRWCATTANYDQDKLYGFCPTRVDATVVGGNSAGELCVFPFVFLGKQYSSCTSDGRRDGRLWCATTSNFDTDKKWGFCPDQGYSLFLVAAHEFGHALGLDHSSVPEALMYPLYSYLEGFPLNKDDIDGIQYLYGRGSKPDPRPPATTTTEPQPTAPPTMCPTIPPTAYPTVGPTVGPTGAPSPGPTSSPSPGPTGAPSPGPTAPPTAGSSEASTESLSPADNPCNVDVFDAIAEIQGALHFFKDGWYWKFLNHRGSPLQGPFLTARTWPALPATLDSAFEDPQTKRVFFFSGRQMWVYTGKTVLGPRSLDKLGLGPEVTHVSGLLPRRLGKALLFSKGRVWRFDLKSQKVDPQSVIRVDKEFSGVPWNSHDIFQYQDKAYFCHGKFFWRVSFQNEVNKVDHEVNQVDDVGYVTYDLLQCP
notes: The turnover of different substrates by active MMP-2 and active MMP-9 was determined using this assay
On to B1, for which the results for the kcat/Km in series [1] and in series [2] were greater than 100000 M⁻¹ s⁻¹ and 897 M⁻¹ s⁻¹, respectively.

B2: MMP-2 (Homo sapiens) (protein)
chain: YNFFPRKPKWDKNQITYRIIGYTPDLDPETVDDAFARAFQVWSDVTPLRFSRIHDGEADIMINFGRWEHGDGYPFDGKDGLLAHAFAPGTGVGGDSHFDDDELWTLGEGQVVRVKYGNADGEYCKFPFLFNGKEYNSCTDTGRSDGFLWCSTTYNFEKDGKYGFCPHEALFTMGGNAEGQPCKFPFRFQGTSYDSCTTEGRTDGYRWCGTTEDYDRDKKYGFCPETAMSTVGGNSEGAPCVFPFTFLGNKYESCTSAGRSDGKMWCATTANYDDDRKWGFCPDQGYSLFLVAAHEFGHAMGLEHSQDPGALMAPIYTYTKNFRLSQDDIKGIQELYGASPDIDLGTGPTPTLGPVTPEICKQDIVFDGIAQIRGEIFFFKDRFIWRTVTPRDKPMGPLLVATFWPELPEKIDAVYEAPQEEKAVFFAGNEYWIYSASTLERGYPKPLTSLGLPPDVQRVDAAFNWSKNKKTYIFAGDKFWRYNEVKKKMDPGFPKLIADAWNAIPDNLDAVVDLQGGGHSYFFKGAYYLKLENQSLKSVKFGSIKSDWLGC
B2: the catalytic efficiency (kcat/Km) in series [3] is 63200 M⁻¹ s⁻¹; in series [4], 63700 M⁻¹ s⁻¹.
